Kd data for one molecule are collected here from doi:10.1101/2025.06.13.659598.

The target of assay [1] is nesprin-2G SR11-12 (spectrin repeats 11-12 of human nesprin-2) (human). Description: BLI.
Assay [2] addresses nesprin-2G SR11-13 (spectrin repeats 11-13 of human nesprin-2) (human). Description: BLI.

B1: FHOD1 SRBD-DID (amino terminal construct of human FHOD1) (domain or fragment)
chain: SVVTVRVQYLEDTDPFACANFPEPRRAPTCSLDGALPLGAQIPAVHRLLGAPLKLEDCALQVSPSGYYLDTELSLEEQREMLEGFYEEISKGRKPTLILRTQLSVRVNAILEKLYSSSGPELRRSLFSLKQIFQEDKDLVPEFVHSEGLSCLIRVGAAADHNYQSYILRALGQLMLFVDGMLGVVAHSDTIQWLYTLCASLSRLVVKTALKLLLVFVEYSENNAPLFIRAVNSVASTTGAPPWANLVSILEEKNGADPELLVYTVTLINKTLAALPDQDSFYDVTDALEQQGMEALVQRHLGTAGTDVDLRTQLVLYENAL
On to B1, for which the Kd in assay [1] came out at 472 nM; in assay [2], 92 nM.
